Assay results reported in US6703362 (CYTOGEN, dated 2004).

T1: D2H receptor domain (human D2H transporter, amino acid residues 387-685), His-tag fusion protein (human, UniProt Q07837 387-685)
T1 construct: purified under denaturing conditions; also called recombinant D2H; not shown: poly-histidine tag (pET vector) at the NH2-terminal end
T1 sequence: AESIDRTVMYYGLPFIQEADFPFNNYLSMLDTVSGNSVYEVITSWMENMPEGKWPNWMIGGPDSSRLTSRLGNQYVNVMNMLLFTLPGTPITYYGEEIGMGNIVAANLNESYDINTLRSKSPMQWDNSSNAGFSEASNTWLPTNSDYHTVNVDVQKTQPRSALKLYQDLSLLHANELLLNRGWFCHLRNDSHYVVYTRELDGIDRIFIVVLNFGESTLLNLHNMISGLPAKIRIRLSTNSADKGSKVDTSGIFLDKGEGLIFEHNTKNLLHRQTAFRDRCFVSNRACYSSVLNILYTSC

B1: SNi34 (peptide)
peptide: SPCGGSWGRFMQGGLFGGRTDGCGAHRNRTSASLEPPSSDYAETVESCLAKPHTENSFTNVWKDDKTLDRYANYEGCLWNATGVVVCTGDETQCYGTWVPIGLAIPENEGGGSEGGGSEGGGSEGGGTKPPEYGDTPIPGYTYINPLDGTYPPGTEQNPANPNPSLEESQPLNTFMFQNNRFRNRQGALTVYTGTVTQGTDPVKTYYQYTPVSSKAMYDAYWNGKFRDCAFHSGFNEDPFVCEYQGQSSDLPQPPVNAGGGSGGGSGGGSEGGGSEGGGSEGGGSEGGGSGGGSGSGDFDYEKMANANKGAMTENADENALQSDAKGKLDSVATDYGAAIDGFIGDVSGLANGNGATGDFAGSNSQMAQVGDGDNSPLMNNFRQYLPSLPQSVECRPFVFSAGKPYEFSIDCDKINLFRGVFAFLLYVATFMYVFSTFANILRNKES
notes: Assayed as M13 phage clone displaying the insert
B2: SNi38 (peptide)
peptide: RGAADQRRGWSENLGLPRVGWDAIAHNSYTFTSRRPRPPAETVESCLAKPHTENSFTNVWKDDKTLDRYANYEGCLWNATGVVVCTGDETQCYGTWVPIGLAIPENEGGGSEGGGSEGGGSEGGGTKPPEYGDTPIPGYTYINPLDGTYPPGTEQNPANPNPSLEESQPLNTFMFQNNRFRNRQGALTVYTGTVTQGTDPVKTYYQYTPVSSKAMYDAYWNGKFRDCAFHSGFNEDPFVCEYQGQSSDLPQPPVNAGGGSGGGSGGGSEGGGSEGGGSEGGGSEGGGSGGGSGSGDFDYEKMANANKGAMTENADENALQSDAKGKLDSVATDYGAAIDGFIGDVSGLANGNGATGDFAGSNSQMAQVGDGDNSPLMNNFRQYLPSLPQSVECRPFVFSAGKPYEFSIDCDKINLFRGVFAFLLYVATFMYVFSTFANILRNKES
notes: as for B1
B3: SNi45 (peptide)
peptide: SGGEVSSWGRVNDLCARVSWTGCGTARSARTDNKGFLPKHSSLRAETVESCLAKPHTENSFTNVWKDDKTLDRYANYEGCLWNATGVVVCTGDETQCYGTWVPIGLAIPENEGGGSEGGGSEGGGSEGGGTKPPEYGDTPIPGYTYINPLDGTYPPGTEQNPANPNPSLEESQPLNTFMFQNNRFRNRQGALTVYTGTVTQGTDPVKTYYQYTPVSSKAMYDAYWNGKFRDCAFHSGFNEDPFVCEYQGQSSDLPQPPVNAGGGSGGGSGGGSEGGGSEGGGSEGGGSEGGGSGGGSGSGDFDYEKMANANKGAMTENADENALQSDAKGKLDSVATDYGAAIDGFIGDVSGLANGNGATGDFAGSNSQMAQVGDGDNSPLMNNFRQYLPSLPQSVECRPFVFSAGKPYEFSIDCDKINLFRGVFAFLLYVATFMYVFSTFANILRNKES
notes: as for B1
B4: SNiAX2 (peptide)
peptide: SDSDGDHYGLRGGVRCSLRDRGCGLALSTVHAGPPSFYPKLSSPAETVESCLAKPHTENSFTNVWKDDKTLDRYANYEGCLWNATGVVVCTGDETQCYGTWVPIGLAIPENEGGGSEGGGSEGGGSEGGGTKPPEYGDTPIPGYTYINPLDGTYPPGTEQNPANPNPSLEESQPLNTFMFQNNRFRNRQGALTVYTGTVTQGTDPVKTYYQYTPVSSKAMYDAYWNGKFRDCAFHSGFNEDPFVCEYQGQSSDLPQPPVNAGGGSGGGSGGGSEGGGSEGGGSEGGGSEGGGSGGGSGSGDFDYEKMANANKGAMTENADENALQSDAKGKLDSVATDYGAAIDGFIGDVSGLANGNGATGDFAGSNSQMAQVGDGDNSPLMNNFRQYLPSLPQSVECRPFVFSAGKPYEFSIDCDKINLFRGVFAFLLYVATFMYVFSTFANILRNKES
notes: as for B1
B5: SNiAX6 (peptide)
peptide: RTTTAKGCLLGSFGVLSGCSFTPTSPPPHLGYPPHSVNAETVESCLAKPHTENSFTNVWKDDKTLDRYANYEGCLWNATGVVVCTGDETQCYGTWVPIGLAIPENEGGGSEGGGSEGGGSEGGGTKPPEYGDTPIPGYTYINPLDGTYPPGTEQNPANPNPSLEESQPLNTFMFQNNRFRNRQGALTVYTGTVTQGTDPVKTYYQYTPVSSKAMYDAYWNGKFRDCAFHSGFNEDPFVCEYQGQSSDLPQPPVNAGGGSGGGSGGGSEGGGSEGGGSEGGGSEGGGSGGGSGSGDFDYEKMANANKGAMTENADENALQSDAKGKLDSVATDYGAAIDGFIGDVSGLANGNGATGDFAGSNSQMAQVGDGDNSPLMNNFRQYLPSLPQSVECRPFVFSAGKPYEFSIDCDKINLFRGVFAFLLYVATFMYVFSTFANILRNKES
notes: as for B1
B6: SNiAX8 (peptide)
peptide: SPKLSSVGVMTKVTELPTEGPNAISIPISATLGPRNPLRAETVESCLAKPHTENSFTNVWKDDKTLDRYANYEGCLWNATGVVVCTGDETQCYGTWVPIGLAIPENEGGGSEGGGSEGGGSEGGGTKPPEYGDTPIPGYTYINPLDGTYPPGTEQNPANPNPSLEESQPLNTFMFQNNRFRNRQGALTVYTGTVTQGTDPVKTYYQYTPVSSKAMYDAYWNGKFRDCAFHSGFNEDPFVCEYQGQSSDLPQPPVNAGGGSGGGSGGGSEGGGSEGGGSEGGGSEGGGSGGGSGSGDFDYEKMANANKGAMTENADENALQSDAKGKLDSVATDYGAAIDGFIGDVSGLANGNGATGDFAGSNSQMAQVGDGDNSPLMNNFRQYLPSLPQSVECRPFVFSAGKPYEFSIDCDKINLFRGVFAFLLYVATFMYVFSTFANILRNKES
notes: as for B1
B7: DCX26 (peptide)
peptide: SGRTTSEISGLWGWGDDRSGYGWGNTLRPNYIPYRQATNRHRYTAETVESCLAKPHTENSFTNVWKDDKTLDRYANYEGCLWNATGVVVCTGDETQCYGTWVPIGLAIPENEGGGSEGGGSEGGGSEGGGTKPPEYGDTPIPGYTYINPLDGTYPPGTEQNPANPNPSLEESQPLNTFMFQNNRFRNRQGALTVYTGTVTQGTDPVKTYYQYTPVSSKAMYDAYWNGKFRDCAFHSGFNEDPFVCEYQGQSSDLPQPPVNAGGGSGGGSGGGSEGGGSEGGGSEGGGSEGGGSGGGSGSGDFDYEKMANANKGAMTENADENALQSDAKGKLDSVATDYGAAIDGFIGDVSGLANGNGATGDFAGSNSQMAQVGDGDNSPLMNNFRQYLPSLPQSVECRPFVFSAGKPYEFSIDCDKINLFRGVFAFLLYVATFMYVFSTFANILRNKES
notes: as for B1
B8: DCX33 (peptide)
peptide: RWNWTVLPATGGHYWTRSTDYHAINNHRPSIPHQHPTPIAETVESCLAKPHTENSFTNVWKDDKTLDRYANYEGCLWNATGVVVCTGDETQCYGTWVPIGLAIPENEGGGSEGGGSEGGGSEGGGTKPPEYGDTPIPGYTYINPLDGTYPPGTEQNPANPNPSLEESQPLNTFMFQNNRFRNRQGALTVYTGTVTQGTDPVKTYYQYTPVSSKAMYDAYWNGKFRDCAFHSGFNEDPFVCEYQGQSSDLPQPPVNAGGGSGGGSGGGSEGGGSEGGGSEGGGSEGGGSGGGSGSGDFDYEKMANANKGAMTENADENALQSDAKGKLDSVATDYGAAIDGFIGDVSGLANGNGATGDFAGSNSQMAQVGDGDNSPLMNNFRQYLPSLPQSVECRPFVFSAGKPYEFSIDCDKINLFRGVFAFLLYVATFMYVFSTFANILRNKES
notes: as for B1
B9: DCX36 (peptide)
peptide: SWSSWNWSSKTTRLGDRATREGCGPSQSDGCPYNGRLTTVKPRTAETVESCLAKPHTENSFTNVWKDDKTLDRYANYEGCLWNATGVVVCTGDETQCYGTWVPIGLAIPENEGGGSEGGGSEGGGSEGGGTKPPEYGDTPIPGYTYINPLDGTYPPGTEQNPANPNPSLEESQPLNTFMFQNNRFRNRQGALTVYTGTVTQGTDPVKTYYQYTPVSSKAMYDAYWNGKFRDCAFHSGFNEDPFVCEYQGQSSDLPQPPVNAGGGSGGGSGGGSEGGGSEGGGSEGGGSEGGGSGGGSGSGDFDYEKMANANKGAMTENADENALQSDAKGKLDSVATDYGAAIDGFIGDVSGLANGNGATGDFAGSNSQMAQVGDGDNSPLMNNFRQYLPSLPQSVECRPFVFSAGKPYEFSIDCDKINLFRGVFAFLLYVATFMYVFSTFANILRNKES
notes: as for B1
B10: DCX39 (peptide)
peptide: SGSLNAWQPRSWVGGAFRSHANNNLNPKPTMVTRHPTAETVESCLAKPHTENSFTNVWKDDKTLDRYANYEGCLWNATGVVVCTGDETQCYGTWVPIGLAIPENEGGGSEGGGSEGGGSEGGGTKPPEYGDTPIPGYTYINPLDGTYPPGTEQNPANPNPSLEESQPLNTFMFQNNRFRNRQGALTVYTGTVTQGTDPVKTYYQYTPVSSKAMYDAYWNGKFRDCAFHSGFNEDPFVCEYQGQSSDLPQPPVNAGGGSGGGSGGGSEGGGSEGGGSEGGGSEGGGSGGGSGSGDFDYEKMANANKGAMTENADENALQSDAKGKLDSVATDYGAAIDGFIGDVSGLANGNGATGDFAGSNSQMAQVGDGDNSPLMNNFRQYLPSLPQSVECRPFVFSAGKPYEFSIDCDKINLFRGVFAFLLYVATFMYVFSTFANILRNKES
notes: as for B1
B11: DCX42 (peptide)
peptide: RYSGLSPRDNGPACSQEATLEGCGAQRLMSTRRKGRNSRPGWTLAETVESCLAKPHTENSFTNVWKDDKTLDRYANYEGCLWNATGVVVCTGDETQCYGTWVPIGLAIPENEGGGSEGGGSEGGGSEGGGTKPPEYGDTPIPGYTYINPLDGTYPPGTEQNPANPNPSLEESQPLNTFMFQNNRFRNRQGALTVYTGTVTQGTDPVKTYYQYTPVSSKAMYDAYWNGKFRDCAFHSGFNEDPFVCEYQGQSSDLPQPPVNAGGGSGGGSGGGSEGGGSEGGGSEGGGSEGGGSGGGSGSGDFDYEKMANANKGAMTENADENALQSDAKGKLDSVATDYGAAIDGFIGDVSGLANGNGATGDFAGSNSQMAQVGDGDNSPLMNNFRQYLPSLPQSVECRPFVFSAGKPYEFSIDCDKINLFRGVFAFLLYVATFMYVFSTFANILRNKES
notes: as for B1

Biological target: T2, hSI receptor domain (human sucrase-isomaltase complex, amino acid residues 272-667), His-tag fusion protein (human, UniProt P14410 272-667)
T2 construct: also called hS1; recombinant hSI; not shown: poly-histidine tag (pET vector) at the NH2-terminal end
Assay: phage ELISA, OD on hSI over OD on BSA
Description: (§1) 6.6. Receptor ELISA Procedure 96 well plates were coated overnight with GIT receptor, BSA and, optionally, IDE (insulin degrading enzyme, an irrelevant His-fusion protein)or hTF. The plates were blocked for one hour with 0.5% BSA-PBS. After clarification, the amplified phage were diluted 1:100 in […] plus 0.05% Tween 20 in PBS and added to the plates. Following incubation of the plates on a rotator for 1 to 2 hours, the plates were washed 5 times with 1% BSA plus 0.05% Tween 20 in PBS. […] After the plates were washed 5 times, as described above, TMB substrate was added to the wells. The plates were read at 650 nm absorbance.

T2 sequence (P14410 272-667, one chain of several): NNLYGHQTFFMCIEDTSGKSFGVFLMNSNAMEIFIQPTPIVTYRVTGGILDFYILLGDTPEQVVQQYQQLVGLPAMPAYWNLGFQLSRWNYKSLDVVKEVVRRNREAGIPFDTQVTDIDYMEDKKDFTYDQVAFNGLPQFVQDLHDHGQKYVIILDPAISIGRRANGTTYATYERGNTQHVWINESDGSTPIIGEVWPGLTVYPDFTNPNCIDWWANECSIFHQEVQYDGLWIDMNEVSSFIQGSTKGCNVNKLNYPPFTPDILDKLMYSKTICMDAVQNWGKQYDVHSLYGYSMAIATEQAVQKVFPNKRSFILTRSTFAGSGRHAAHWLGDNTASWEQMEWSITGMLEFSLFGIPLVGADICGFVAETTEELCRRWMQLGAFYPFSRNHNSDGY

Binder	hSI/BSA
B1	7 ratio
B2	6 ratio
B3	9 ratio
B4	6 ratio
B5	7 ratio
B6	5 ratio

Biological target: T1, D2H receptor domain (human D2H …)
Assay: phage ELISA, plate coated with D2H domain
Description: as §1
Binding to fixed Caco-2 cells, D2H and BSA was examined.

Binder	OD
B7	0.956 OD
B8	0.616 OD
B9	0.293 OD
B10	0.299 OD
B11	0.158 OD

Biological target: T2, hSI receptor domain (human …)
Assay: phage ELISA, plate coated with hSI domain
Description: as §1

Binder	OD
B1	0.761 OD
B2	0.466 OD
B3	0.518 OD
B4	0.383 OD
B5	0.369 OD
B6	0.342 OD
